PMC7515959, “Imaging angiogenesis in patients with head and neck squamous cell carcinomas by [^68Ga]Ga-DOTA-E-[c(RGDfK)]2 PET/CT” (European Journal of Nuclear Medicine and Molecular Imaging, 2020)

What was measured:
αvβ3 integrin [1] = system: T1, αvβ3 integrin; test: clinical; details: human, in vivo, iv, 200 MBq, total radioactivity
T1 construct: integrin αvβ3 predominantly expressed in endothelial cells of tumour-associated blood vessels; from tissue; host or cells: tumour lesions and lymph nodes of living patients with oral squamous cell carcinoma (in vivo PET/CT)
Protocol: (§1) Included patients had no restrictions in food or medication intake. ^68Ga-RGD was administered intravenously using a slow bolus injection of 8 ml over 40 s (200 ± 29 MBq; range 119–218 MBq, 42 ± 8 μg; range 34–58 μg). The net injected dose was calculated by measuring the syringe before and after ^68Ga-RGD administration using a dedicated dose calibrator (VDS-405, Comecer, Joure, The Netherlands). Patients were monitored for (severe) adverse events according to the Common Terminology Criteria for Adverse Events, version 4.03. Venous blood samples at 1, 2, 5, 10, 30 and 90 min after injection were taken for pharmacokinetic and safety analysis. The concentration of ^68Ga-RGD in the blood samples (Bq/ml) was calculated by gamma counter (Wizard Detector Gamma Counter, PerkinElmer Inc., Waltham, MA, USA) while simultaneously measuring 1% standards. Safety analysis included a complete blood count test and assessment of kidney and liver function by measuring the eGFR (MDRD), total bilirubin and aspartate aminotransferase and alanine aminotransferase levels.
(§2) Five patients underwent three static whole-body PET/CT at 30, 60 and 90 min post injection on a Biograph 40 mCT scanner (Siemens Medical Solutions, Knoxville TN, USA) equipped with a dual-slice CT for 4 min of PET data per bed position, with bed positions from the base of the skull to trochanter major. For each PET/CT image, two image reconstructions were used, with a TrueX algorithm with point spread function (PSF) and time of flight (TOF) measurements, using three iterations, 21 subsets, matrix size 256 × 256 (pixel spacing of 3.2 mm) or 200 × 200 (pixel spacing of 4.07 mm), full width at half maximum (FWHM) of 5 mm. Post-processing was performed using a 3D Gaussian filter kernel, 7.5 or 3 mm. The other five patients underwent 60 min dynamic ^68Ga-RGD PET/CT starting at start of injection, of the head and neck region (15 cm FOV), to obtain time–activity curves in malignant lesions. These images were reconstructed in 33 frames ([…], 10 × 5 s, 3 × 10 s, 2 × 15 s, 5 × 30 s, 5 × 120 s, 5 × 300 s and 2 × 600 s). For all patients, a low-dose CT scan was acquired for attenuation correction and anatomical reference, with an automatically modulated X-ray tube voltage and current (100 kV, 30 mA) using Care kV and Care Dose4D (Siemens Healthcare), 512 × 512 voxels; 0.98 pixel spacing; 3 mm slice thickness; 1 pitch. The CT images for anatomical reference were reconstructed with a B31f convolution kernel, slice thickness 5 mm.
(§3) All ^68Ga-RGD PET/CT scans were evaluated by two experienced nuclear medicine physicians (WJGO, EHJGA) on a dedicated workstation (Oasis software, Segami Corporation, Columbia, MD, USA) with a PET/CT viewer for automatic image registration. A volume-of-interest (VOI) around the tumour mass was manually drawn to obtain a maximum standardised uptake value (SUVmax) of the tumour area—drawn on the static PET/CT image acquired 60 min post injection—and to determine the 41% SUVmax isocontour and SUVpeak (highest mean SUV value of 1 cm^3) within this tumour volume. The same analysis was applied on the dynamic imaging series, in which a reconstructed frame of 4 min (56–60 min p.i.) was extracted from the dynamic imaging series to obtain a static image for tumour volume delineation. The dynamic imaging series were also used to obtain time–activity curves using the PMOD Medical Imaging Program version 3.15 (PMOD technologies LLC, Zürich, Switzerland). Curves were estimated for both tumour lesions and background tissue. Tumour delineation was based on the evaluation in Oasis (Oasis software, Segami Corporation, Columbia, MD, USA), drawn on the last frame of the PET series, and subsequently copied to the other frames. For time–activity curves of the muscle, a VOI of 1.5 ml was defined in dorsolateral musculature (contralateral to the tumour) using the CT images and subsequently copied to the dynamic dataset. […]

clinical = details: human, in vivo, iv, SUVmax tumour
Protocol: as §1, §2, §3

αvβ3 integrin [2] = target: T2, αvβ3 integrin (Homo sapiens, UniProt P05106+P06756); test: clinical; details: in vivo
T2 construct: integrin αvβ3 predominantly expressed in endothelial cells of tumour-associated blood vessels; from tissue; host or cells: tumour lesions and lymph nodes of living patients with oral squamous cell carcinoma (in vivo PET/CT)
Protocol: as §1, §2, §3

[3] = set-up: species or system human; details: in vivo
Protocol: as §1

[4] = set-up: species or system human; details: in vivo; remark: listed apart in the source
Protocol: Five patients underwent three static whole-body PET/CT at 30, 60 and 90 min post injection on a Biograph 40 mCT scanner (Siemens Medical Solutions, Knoxville TN, USA) equipped with a dual-slice CT for 4 min of PET data per bed position, with bed positions from the base of the skull to trochanter major. For each PET/CT image, two image reconstructions were used, with a TrueX algorithm with point spread function (PSF) and time of flight (TOF) measurements, using three iterations, 21 subsets, matrix size 256 × 256 (pixel spacing of 3.2 mm) or 200 × 200 (pixel spacing of 4.07 mm), full width at half maximum (FWHM) of 5 mm. Post-processing was performed using a 3D Gaussian filter kernel, 7.5 or 3 mm. […]
All ^68Ga-RGD PET/CT scans were evaluated by two experienced nuclear medicine physicians (WJGO, EHJGA) on a dedicated workstation (Oasis software, Segami Corporation, Columbia, MD, USA) with a PET/CT viewer for automatic image registration. […]
Numerical data are presented as mean ± standard deviation (SD). […] The biological half-life of ^68Ga-RGD was calculated using bi-exponential regression analysis in MATLAB version R2014b (MathWorks, Natick, MA, USA). The analyses of optimal imaging time point and uptake values were analysed using SPSS Statistics, version 22.0.0.1 (IBM), with a one-way ANOVA followed by a Bonferroni post hoc test to adjust for multiple comparisons. […]

[5] = set-up: species or system human; details: in vivo; remark: listed apart in the source
Protocol: as §1, with “[…] The biological half-life of ^68Ga-RGD was calculated using bi-exponential regression” for “Safety”, “in MATLAB version R2014b (MathWorks, Natick, MA, USA). The analyses of optimal imaging time point and uptake values were analysed using SPSS Statistics, version 22.0.0.1 (IBM), with” for “included”, “one-way ANOVA followed by a Bonferroni post hoc” for “complete blood count”, “to adjust for multiple comparisons. […]” for “and assessment of kidney and liver function by measuring the eGFR (MDRD), total bilirubin and aspartate aminotransferase and alanine aminotransferase levels.”

T2 sequence (P06756 31-889 limits assumed): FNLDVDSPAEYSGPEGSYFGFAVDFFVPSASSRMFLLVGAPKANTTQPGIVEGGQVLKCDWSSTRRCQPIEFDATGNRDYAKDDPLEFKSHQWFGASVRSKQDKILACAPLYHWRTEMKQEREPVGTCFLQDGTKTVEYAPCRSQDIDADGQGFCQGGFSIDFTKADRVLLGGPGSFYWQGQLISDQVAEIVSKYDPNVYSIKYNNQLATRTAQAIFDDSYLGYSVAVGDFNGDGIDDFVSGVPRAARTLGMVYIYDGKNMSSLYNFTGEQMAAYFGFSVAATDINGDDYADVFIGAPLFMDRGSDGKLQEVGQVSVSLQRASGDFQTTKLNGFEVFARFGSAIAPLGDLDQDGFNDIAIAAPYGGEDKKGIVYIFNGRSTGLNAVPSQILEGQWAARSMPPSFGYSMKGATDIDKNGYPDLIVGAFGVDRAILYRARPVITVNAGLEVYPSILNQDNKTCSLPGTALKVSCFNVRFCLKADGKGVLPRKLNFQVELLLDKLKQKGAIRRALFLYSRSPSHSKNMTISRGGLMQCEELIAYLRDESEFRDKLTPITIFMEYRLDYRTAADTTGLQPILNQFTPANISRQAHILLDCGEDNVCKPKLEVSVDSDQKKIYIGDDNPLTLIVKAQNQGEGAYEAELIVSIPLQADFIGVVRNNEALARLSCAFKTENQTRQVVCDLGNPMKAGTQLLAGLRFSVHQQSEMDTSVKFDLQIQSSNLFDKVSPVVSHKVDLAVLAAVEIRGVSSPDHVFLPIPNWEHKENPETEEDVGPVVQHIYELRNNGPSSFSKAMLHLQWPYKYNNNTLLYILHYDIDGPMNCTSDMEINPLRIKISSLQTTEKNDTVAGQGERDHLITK
T2 sequence (P06756 891-1048 limits assumed): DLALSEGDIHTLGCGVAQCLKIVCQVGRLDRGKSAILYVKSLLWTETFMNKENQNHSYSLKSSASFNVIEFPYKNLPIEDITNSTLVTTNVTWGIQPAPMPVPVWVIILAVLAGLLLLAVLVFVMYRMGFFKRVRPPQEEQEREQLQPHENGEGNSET
T2 sequence (P05106 27-788): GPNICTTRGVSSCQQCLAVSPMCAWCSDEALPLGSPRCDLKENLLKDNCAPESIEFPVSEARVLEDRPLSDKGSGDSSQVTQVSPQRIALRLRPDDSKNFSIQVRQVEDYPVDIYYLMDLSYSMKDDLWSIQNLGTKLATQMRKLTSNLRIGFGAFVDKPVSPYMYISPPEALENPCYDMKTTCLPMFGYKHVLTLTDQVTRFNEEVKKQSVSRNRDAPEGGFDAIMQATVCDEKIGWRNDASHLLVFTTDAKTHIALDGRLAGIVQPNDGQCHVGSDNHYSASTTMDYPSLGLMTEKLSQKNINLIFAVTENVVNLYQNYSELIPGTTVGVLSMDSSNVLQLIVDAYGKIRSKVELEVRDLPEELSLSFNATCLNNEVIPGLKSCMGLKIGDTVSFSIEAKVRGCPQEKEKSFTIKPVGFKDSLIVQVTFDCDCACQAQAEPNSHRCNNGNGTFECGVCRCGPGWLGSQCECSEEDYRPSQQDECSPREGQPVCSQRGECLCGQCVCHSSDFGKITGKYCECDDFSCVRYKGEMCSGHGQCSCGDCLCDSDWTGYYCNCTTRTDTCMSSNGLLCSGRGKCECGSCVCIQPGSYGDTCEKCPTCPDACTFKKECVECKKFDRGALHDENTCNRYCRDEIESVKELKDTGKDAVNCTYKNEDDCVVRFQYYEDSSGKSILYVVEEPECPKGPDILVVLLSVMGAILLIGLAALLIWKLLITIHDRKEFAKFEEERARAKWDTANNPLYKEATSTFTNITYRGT

SMILES: N=C(N)NCCC[C@@H]1NC(=O)[C@H](CCCCNC(=O)CC[C@H](NC(=O)CN2CCN(CC(=O)O)CCN(CC(=O)O)CCN(CC(=O)O)CC2)C(=O)NCCCC[C@@H]2NC(=O)[C@@H](Cc3ccccc3)NC(=O)[C@H](CC(=O)O)NC(=O)CNC(=O)[C@H](CCCNC(=N)N)NC2=O)NC(=O)[C@@H](Cc2ccccc2)NC(=O)[C@H](CC(=O)O)NC(=O)CNC1=O [^68Ga-RGD, [^68Ga]Ga-DOTA-E-[c(RGDfK)]2, metal not drawn]
- SUV (αvβ3 integrin [1]; mean SUVmax in lymph nodes with radiotracer uptake): 4.4 ± 2.3 SUV
- SUV at 0.5 h (αvβ3 integrin [1]; mean SUVmax in tumour tissue): 5.7 ± 0.8 SUV
- SUV at 1 h (αvβ3 integrin [1]; mean SUVmax in tumour tissue): 5.5 ± 1.2 SUV
- SUV at 1.5 h (αvβ3 integrin [1]; mean SUVmax in tumour tissue): 4.8 ± 1.2 SUV
- SUV at 1 h (clinical): 6.5 SUV
- SUVmax in lymph nodes with radiotracer uptake, range (αvβ3 integrin [2]): 1.8-7.6
- time after injection at which plateau phase was reached in tumour tissue (αvβ3 integrin [2]): 15 min
- time after injection at which tracer accumulation in tumour tissue plateaued (αvβ3 integrin [2]): 10 min
- tumour-to-muscle tissue ratio (mean) (αvβ3 integrin [2]): 6.4 ± 0.7
- laboratory values [3]: within normal ranges
- vital signs and (serious) adverse events [3]: no changes in vital signs nor any (serious) adverse events
- distribution half-life (t1/2α) [4]: 0.14 ± 0.07 min
- elimination half-life [5]: 23.0 ± 2.3 min
- uptake by blood cells (whole blood versus plasma concentration) [5]: not taken up by the blood cells
